Assay results from publication PMC11634027.
Blank lines part the entries; values can stand above or below the substance they belong to.

Legend:
[1] = target: Ds-TM-ICD-ΔD-II:V5 (Drosophila); assay: co-IP; S2 cells co-transfected; lysed in RIPA buffer; V5-tagged Ds construct precipitated with V5-Trap magnetic agarose beads, 1 h; blots with anti-V5 and anti-FLAG (Figs 4E, 5G, 6D,F, 8K)
[2] = target: Ds-TM-ICD-ΔD-III:V5 (Drosophila); assay: as above
[3] = target: Ds-TM-ICD-ΔD-III:V5 (Drosophila); assay: co-IP; S2 cells co-transfected; lysed in RIPA buffer; results in supplementary figures (S6-S9) or without a figure; which beads (V5-Trap or Fab-Trap) is not told in what was shown
[4] = target: Ds-TM-ICD-ΔD-II:V5 (Drosophila); assay: as above

co-precipitation relative to Ds-ICD full length [1]: 15%
Substance: FLAG:Lft (Lowfat) (from UniProt Q9VKY1 1-268) (natural protein)

co-precipitation relative to control (Ds-ICD:V5) [2]: 40%
co-precipitation relative to control (Ds-ICD:V5) [1]: 57%
Substance: MyoID:FLAG (from UniProt Q23978 1-1011) (natural protein)

co-precipitation relative to Ds-ICD full length [3]: 35%
co-precipitation relative to Ds-ICD full length [4]: 30%
Substance: Sple-N:FLAG (from UniProt A1Z6W3 1-349) (domain or fragment)
